Source: paper PMC9482650, “Quantitative fragmentomics allow affinity mapping of interactomes” (Nature Communications, 2022)
Residue numbers refer to the chain shown, from its start.

T1: LIN7B, Q9HAP6
T1 sequence (Q9HAP6 88-185, limits assumed, looked up): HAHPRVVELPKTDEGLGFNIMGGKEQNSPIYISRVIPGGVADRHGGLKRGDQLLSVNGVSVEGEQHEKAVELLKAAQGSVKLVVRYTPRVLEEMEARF

T2: GRIP1_5, Q9Y3R0
T2 sequence (Q9Y3R0 568-668, limits assumed, looked up): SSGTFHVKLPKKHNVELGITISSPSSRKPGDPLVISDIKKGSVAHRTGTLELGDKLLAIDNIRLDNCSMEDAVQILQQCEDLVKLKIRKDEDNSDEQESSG

T3: SNTB1, Q13884
T3 sequence (Q13884 107-205, limits assumed, looked up): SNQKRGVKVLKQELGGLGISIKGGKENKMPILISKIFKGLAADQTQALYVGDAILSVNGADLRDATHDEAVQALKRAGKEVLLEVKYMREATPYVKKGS

T4: NHERF3_1, Q5T2W1
T4 sequence (Q5T2W1 4-100, limits assumed, looked up): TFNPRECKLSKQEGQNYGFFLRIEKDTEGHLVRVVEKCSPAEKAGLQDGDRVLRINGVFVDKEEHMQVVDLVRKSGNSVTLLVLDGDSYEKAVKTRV

T5: APBA2_2, Q99767
T5 sequence (Q99767 654-744, limits assumed, looked up): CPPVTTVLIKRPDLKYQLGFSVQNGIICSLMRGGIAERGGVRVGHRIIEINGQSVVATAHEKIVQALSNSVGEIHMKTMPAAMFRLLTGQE

T6: FRMPD1, Q5SYB0
T6 sequence (Q5SYB0 52-145, limits assumed, looked up): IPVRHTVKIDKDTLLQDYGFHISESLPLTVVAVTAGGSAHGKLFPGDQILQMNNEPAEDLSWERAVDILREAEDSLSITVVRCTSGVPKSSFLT

T7: APBA1_2, Q02410
T7 sequence (Q02410 742-832, limits assumed, looked up): T5 sequence (Q99767 654-744, limits assumed, looked up) with K10R, K15R, A59P, Q65H, A66I, S70A, F84Y, G89A

T8: GRIP1_4, Q9Y3R0
T8 sequence (Q9Y3R0 467-571, limits assumed, looked up): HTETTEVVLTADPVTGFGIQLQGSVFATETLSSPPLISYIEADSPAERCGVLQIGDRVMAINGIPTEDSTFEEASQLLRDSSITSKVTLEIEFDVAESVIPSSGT

T9: APBA1_1, Q02410
T9 sequence (Q02410 651-752, limits assumed, looked up): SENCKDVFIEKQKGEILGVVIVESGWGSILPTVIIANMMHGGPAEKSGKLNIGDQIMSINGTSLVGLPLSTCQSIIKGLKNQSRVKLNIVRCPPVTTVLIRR

T10: HTRA4, P83105
T10 sequence (P83105 378-476, limits assumed, looked up): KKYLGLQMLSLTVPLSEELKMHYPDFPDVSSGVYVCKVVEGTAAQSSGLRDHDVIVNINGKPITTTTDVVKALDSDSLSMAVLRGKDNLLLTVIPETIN

T11: NHERF3_3, Q5T2W1
T11 sequence (Q5T2W1 238-333, limits assumed, looked up): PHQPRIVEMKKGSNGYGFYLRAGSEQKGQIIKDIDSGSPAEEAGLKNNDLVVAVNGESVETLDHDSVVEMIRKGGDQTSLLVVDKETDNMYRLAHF

T12: RAPGEF6, Q8TEU7
T12 sequence (Q8TEU7 525-625, limits assumed, looked up): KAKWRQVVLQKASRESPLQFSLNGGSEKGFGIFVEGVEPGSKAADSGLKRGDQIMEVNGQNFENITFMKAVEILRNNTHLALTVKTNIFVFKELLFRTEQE


Columns and labels:
Assay in all cases: holdup assay
Design in all cases: key: below the threshold = too weak to quantify, mostly under pKd 3.1 to 4
Details in all cases: plain residues with an end cap or a label only (N-terminal biotin on a linker: ado-ado)
[1] = target: GORASP2, Q9H8Y8
[2] = target: GOPC, Q9HD26
[3] = target: GRIP2_6, Q9C0E4
[4] = target: DLG2_3, Q15700
[5] = target: LDB3, O75112
[6] = target: LAP2, Q96RT1
[7] = target: T1, LIN7B, Q9HAP6
[8] = target: MAST1, Q9Y2H9
[9] = target: T2, GRIP1_5, Q9Y3R0
[10] = target: T3, SNTB1, Q13884
[11] = target: T4, NHERF3_1, Q5T2W1
[12] = target: FRMPD3, Q5JV73
[13] = target: DLG4_1, P78352
[14] = target: T5, APBA2_2, Q99767
[15] = target: GRASP, Q7Z6J2
[16] = target: PARD3_3, Q8TEW0
[17] = target: DLG1_1, Q12959
[18] = target: T6, FRMPD1, Q5SYB0
[19] = target: T7, APBA1_2, Q02410
[20] = target: T8, GRIP1_4, Q9Y3R0
[21] = target: T9, APBA1_1, Q02410
[22] = target: Inadl_6, Q8NI35
[23] = target: MAGI2_2, Q86UL8
[24] = target: T10, HTRA4, P83105
[25] = target: T11, NHERF3_3, Q5T2W1
[26] = target: T12, RAPGEF6, Q8TEU7

Chain of MAGI2_2, Q86UL8 (Q86UL8 410-522): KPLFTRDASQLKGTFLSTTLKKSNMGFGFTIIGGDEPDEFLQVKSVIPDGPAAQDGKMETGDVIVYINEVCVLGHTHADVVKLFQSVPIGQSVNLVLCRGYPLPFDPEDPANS
Chain of GRASP, Q7Z6J2 (Q7Z6J2 96-193): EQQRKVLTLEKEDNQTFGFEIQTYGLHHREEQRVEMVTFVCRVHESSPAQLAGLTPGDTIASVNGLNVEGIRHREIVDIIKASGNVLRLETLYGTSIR
Chain of MAST1, Q9Y2H9 (Q9Y2H9 962-1065): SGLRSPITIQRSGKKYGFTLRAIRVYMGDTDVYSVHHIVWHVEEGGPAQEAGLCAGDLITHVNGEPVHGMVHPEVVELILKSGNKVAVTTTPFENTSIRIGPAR
Chain of PARD3_3, Q8TEW0 (Q8TEW0 582-685): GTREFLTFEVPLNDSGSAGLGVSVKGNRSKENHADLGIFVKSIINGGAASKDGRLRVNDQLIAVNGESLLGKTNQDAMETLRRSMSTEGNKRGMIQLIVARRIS
Chain of LDB3, O75112 (O75112 1-94): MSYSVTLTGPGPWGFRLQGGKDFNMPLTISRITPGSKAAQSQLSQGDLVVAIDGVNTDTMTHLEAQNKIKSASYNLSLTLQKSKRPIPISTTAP
Chain of GRIP2_6, Q9C0E4 (Q9C0E4 648-740): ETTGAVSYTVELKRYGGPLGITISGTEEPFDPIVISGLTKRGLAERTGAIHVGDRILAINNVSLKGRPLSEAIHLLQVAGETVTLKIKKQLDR
Chain of FRMPD3, Q5JV73 (Q5JV73 12-100): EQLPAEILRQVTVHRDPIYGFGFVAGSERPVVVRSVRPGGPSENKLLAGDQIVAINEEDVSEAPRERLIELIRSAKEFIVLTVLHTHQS
Chain of DLG4_1, P78352 (P78352 62-152): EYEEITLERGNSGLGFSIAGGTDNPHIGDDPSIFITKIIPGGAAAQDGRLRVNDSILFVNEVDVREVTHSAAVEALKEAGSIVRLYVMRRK
Chain of LAP2, Q96RT1 (Q96RT1 other isoform, or with tags, fused parts or gaps): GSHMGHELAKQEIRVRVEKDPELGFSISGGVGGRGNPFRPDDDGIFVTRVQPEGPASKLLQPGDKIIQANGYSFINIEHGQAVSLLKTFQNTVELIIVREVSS
Chain of Inadl_6, Q8NI35 (Q8NI35 1058-1167): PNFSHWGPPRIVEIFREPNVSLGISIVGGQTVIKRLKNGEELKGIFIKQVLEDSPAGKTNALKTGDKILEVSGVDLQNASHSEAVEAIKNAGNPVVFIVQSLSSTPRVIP

Row | pKd [1] | pKd [2] | pKd [3] | pKd [4] | pKd [5] | pKd [6] | pKd [7] | pKd [8] | pKd [9] | pKd [10] | pKd [11] | pKd [12] | pKd [13] | pKd [14] | pKd [15] | pKd [16] | pKd [17] | pKd [18] | pKd [19] | pKd [20] | Binder | other results
1 | below the threshold | below the threshold | below the threshold | below the threshold | below the threshold | below the threshold | 3.53 | below the threshold | below the threshold | 4.52 | below the threshold | below the threshold | below the threshold | below the threshold | 4.36 | 3.67 | 3.6 | below the threshold | below the threshold | below the threshold | VGIERETDVL [EZH1, Q92800] | pKd [21]: below the threshold; pKd [22]: below the threshold; pKd [23]: below the threshold; pKd [24]: below the threshold; pKd [25]: below the threshold; pKd [26]: below the threshold
2 | below the threshold | 3.62 | below the threshold | 3.9 | below the threshold | 3.65 | below the threshold | 4.32 | below the threshold | 3.9 | below the threshold | below the threshold | 4.12 | below the threshold | 3.49 | below the threshold | 4.02 | below the threshold | 4.38 | below the threshold | GSSSKEGTSV [RRBP1, Q9P2E9] | pKd [21]: below the threshold; pKd [22]: below the threshold; pKd [23]: 4; pKd [24]: 3.9; pKd [25]: below the threshold; pKd [26]: below the threshold
3 | below the threshold | below the threshold | below the threshold | below the threshold | below the threshold | below the threshold | below the threshold | below the threshold | below the threshold | below the threshold | 4.5 | below the threshold | below the threshold | below the threshold | below the threshold | below the threshold | below the threshold | below the threshold | below the threshold | below the threshold | ADRDHASDQL [CTBP1, Q13363] | pKd [21]: below the threshold; pKd [22]: below the threshold; pKd [23]: below the threshold; pKd [24]: 3.73; pKd [25]: below the threshold; pKd [26]: below the threshold
